Test results as given in publication PMC8091585.

Tests used:
[1] = molecular target: Pyruvate:ferredoxin oxidoreductase PFOR1 of Thermoanaerobacter kivui (Thermoanaerobacter kivui); test: SEC; analytical size exclusion chromatography on a calibrated Superdex 200 column, buffer E (50 mM Tris/HCl, 150 mM NaCl, 20 mM MgSO4, 2 mM DTE, 4 µM resazurin, 20% glycerol, pH 7.5), size standards ovalbumin, albumin, catalase, ferritin
[2] = molecular target: Pyruvate:ferredoxin oxidoreductase PFOR1 of Thermoanaerobacter kivui (Thermoanaerobacter kivui)

stoichiometry N [1] | Km for Fd of the pyruvate-dependent Fd reduction by purified PFOR1 (enzyme activity, 66 °C, pH 7.5, Fd 0-50 µM) [2] | Molecule
2 |  | Pyruvate:ferredoxin oxidoreductase PFOR1 of Thermoanaerobacter kivui (enzyme)
 | 19.1 µM | Ferredoxin isolated from Clostridium pasteurianum (natural protein) MAYKIADSCVSCGACASECPVNAISQGDSIFVIDADTCIDCGNCANVCPVGAPVQE
